For assay [1], the target named is T1, wild-type rat apelin receptor-EGFP (rat, UniProt Q9JHG3 1-377, EGFP is fused at the C-terminal (intracellular) end of the receptor. It is not included in the letters.).
T1 sequence: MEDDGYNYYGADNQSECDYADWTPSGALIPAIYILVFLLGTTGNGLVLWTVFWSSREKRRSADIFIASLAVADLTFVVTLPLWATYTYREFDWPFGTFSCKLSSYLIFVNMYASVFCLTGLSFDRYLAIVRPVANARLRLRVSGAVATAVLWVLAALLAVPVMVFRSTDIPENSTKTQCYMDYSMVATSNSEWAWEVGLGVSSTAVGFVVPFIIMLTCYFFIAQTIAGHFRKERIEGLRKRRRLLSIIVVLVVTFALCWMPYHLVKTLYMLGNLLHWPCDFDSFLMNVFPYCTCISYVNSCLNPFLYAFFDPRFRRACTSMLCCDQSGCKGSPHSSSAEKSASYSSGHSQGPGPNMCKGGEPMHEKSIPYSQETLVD
Put plainly: cell-based or functional assay.

The target in assay [2] is T1, wild-type rat apelin receptor-EGFP. Put plainly: competitive radioligand binding vs [125I]-pE13F, membranes of CHO cells expressing rat apelin receptor-EGFP.
The target is the same in assay [3]. Put plainly: cell-based or functional assay. This is another data set of the same source.
Assay [4] has the same target. Put plainly: cell-based or functional assay. The source holds these as a separate data set.
For assay [5] the target is unchanged. Put plainly: cell-based or functional assay. This is another data set of the same source.
Assay [6] has the same target. Put plainly: competitive radioligand binding vs [125I]-pE13F, membranes of CHO cells expressing rat apelin receptor-EGFP. This is another data set of the same source.
Assay [7] shares this target. Put plainly: cell-based or functional assay. This is another data set of the same source.
Assay [8] has the same target. Put plainly: competitive radioligand binding vs [125I]-pE13F, rat apelin receptor-EGFP in CHO membranes.
Assay [9] has the same target. Put plainly: radioligand binding on membrane preparation from CHO cells stably expressing the rat apelin receptor-EGFP.
Assay [10] shares this target. Put plainly: D-scanning; competitive radioligand binding vs [125I]-pE13F, rat apelin receptor-EGFP in CHO membranes.

Here are results for 18 molecules from patent US20170355734A1 (INSERM INSTITUT NATIONAL DE LA SANT ET DE LA RECHERCHE M …, published 2017).

Where two headings read alike, the source gives them in different places. Where no end group is shown, it is not given here. [ ]: non-standard residue; d: D form. The star is where a group is joined. Propanoyl(3-C8F17) = O=C(CCC(F)(F)C(F)(F)C(F)(F)C(F)(F)C(F)(F)C(F)(F)C(F)(F)C(F)(F)F)*; Phe(4-Br) = N[C@@H](Cc1ccc(Br)cc1)C(=O)O; fluorocarbon group = not defined here; Palmitoyl = CCCCCCCCCCCCCCCC(=O)*; acyl group = not defined here; Nle = CCCC[C@H](N)C(=O)O; Aib = CC(C)(N)C(=O)O

AT1 receptor, sequence (P30556 whole entry): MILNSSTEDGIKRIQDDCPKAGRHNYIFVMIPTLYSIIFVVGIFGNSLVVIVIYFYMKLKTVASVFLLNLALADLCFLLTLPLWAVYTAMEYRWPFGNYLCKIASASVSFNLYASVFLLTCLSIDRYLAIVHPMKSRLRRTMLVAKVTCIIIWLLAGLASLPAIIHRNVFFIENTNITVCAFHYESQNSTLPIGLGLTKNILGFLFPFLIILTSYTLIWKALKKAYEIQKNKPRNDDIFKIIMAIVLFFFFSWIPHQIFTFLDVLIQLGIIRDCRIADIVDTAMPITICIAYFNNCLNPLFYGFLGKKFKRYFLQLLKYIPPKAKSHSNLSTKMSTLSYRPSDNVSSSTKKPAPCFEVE

“pE13F (pyroglutamyl form of apelin 13) (peptide)”: in assay [1], the inhibition of forskolin-induced cAMP production IC50 stood at 1 nM.

The molecule pE13(4Br-Phe^13) (peptide) displayed an inhibition of forskolin-induced cAMP production IC50 in assay [1] of 0.1 nM.

A word on the Ki: it is the equilibrium dissociation constant of an inhibitor or competing ligand from its target. A low value points to tighter binding. In [2], K(Palmitoyl)FRRQRPRLSHKGPMPF [JFM V-0220A] came in with a Ki of 1.43 nM. Also, in [3], the IC50 cAMP inhibition stood at 2 nM.

Broadly, the IC50 is the concentration needed to halve the response being measured. Ac-KFRRQRPR[dL]S[Aib]K[dA]P[Nle]P[Phe(4-Br)] (not fully specified (residue 3)) [P96] yielded an IC50 in assay [2] of 0.11 nM. Further, the cAMP production IC50 in assay [4] was determined as 0.45 nM.

For K(heptadecafluoroundecanoyl)FRRQRPRLSHKGPMPF [JFM V-0220B], the Ki in assay [2] is 0.16 nM. This molecule yielded an IC50 cAMP inhibition in [3] of 1 nM.

B1: JFM V-0210/1 (peptide)
peptide: KKFRRQRPRLSHKGPMPF
modifications: fluorocarbon (perfluoroalkyl) group on the εNH2 of the added N-terminal linker L-lysine
B1 came in with a Ki in [2] of 0.18 nM. In addition, the IC50 cAMP inhibition in assay [3] stood at 3.8 nM.

XRPRLSHKGPXPF (pGlu at 1; Nle (norleucine) at 11) [pE13F(Nle^11)] had an inhibition of forskolin-induced cAMP production IC50 in assay [3] of 1 nM.

B2: P92 (peptide)
peptide: KFRRQRPRLSXKAPXPF
HELM: PEPTIDE1{[ac].K.F.[dR].R.[dQ].R.P.R.[dL].S.[Aib].K.[dA].P.[Nle].P.[O=C(O)[C@H](Cc1ccc(Br)cc1)N[*:1]]}$$$$V2.0
SMILES: CCCC[C@H](NC(=O)[C@@H]1CCCN1C(=O)[C@@H](C)NC(=O)[C@H](CCCCN)NC(=O)C(C)(C)NC(=O)[C@H](CO)NC(=O)[C@@H](CC(C)C)NC(=O)[C@H](CCCNC(=N)N)NC(=O)[C@@H]1CCCN1C(=O)[C@H](CCCNC(=N)N)NC(=O)[C@@H](CCC(N)=O)NC(=O)[C@H](CCCNC(=N)N)NC(=O)[C@@H](CCCNC(=N)N)NC(=O)[C@H](Cc1ccccc1)NC(=O)[C@H](CCCCN)NC(C)=O)C(=O)N1CCC[C@H]1C(=O)N[C@@H](Cc1ccc(Br)cc1)C(=O)O
With B2, in assay [2], the IC50 was 0.21 nM and the Ki is 0.2 nM. In assay [5], this molecule gave an Inhibition of FSK-induced cAMP production IC50 of 0.56 nM. The Ki in [6] was 0.09 nM. The same molecule registered a selectivity factor towards the AT1 receptor with respect to the apelin receptor with AT1 receptor of 100 fold. This molecule registered a cAMP production IC50 in assay [4] of 0.62 nM. In assay [3], this molecule yielded an ERK1/2 phosphorylation EC50 of 3.42 nM, an Internalization EC50 of 0.38 nM, a cAMP production IC50 of 0.56 nM and an inhibition of forskolin-induced cAMP production IC50 of 0.2 nM.

With KKFRRQRPRLSHKGPMPF (acyl group RC(O)- on the εNH2 of the added N-terminal linker L-lysine) [JFM V-0210/2], the inhibitory constant (Ki) in assay [2] was 1.33 nM. For the same molecule, the IC50 cAMP inhibition in assay [3] was found to be 1.4 nM.

B3: P26 (peptide)
peptide: RPRLSXKAPXPF
HELM: PEPTIDE1{[ac].R.P.R.[dL].S.[Aib].K.[dA].P.[Nle].P.[O=C(O)[C@H](Cc1ccc(Br)cc1)N[*:1]]}$$$$V2.0
SMILES: CCCC[C@H](NC(=O)[C@@H]1CCCN1C(=O)[C@@H](C)NC(=O)[C@H](CCCCN)NC(=O)C(C)(C)NC(=O)[C@H](CO)NC(=O)[C@@H](CC(C)C)NC(=O)[C@H](CCCNC(=N)N)NC(=O)[C@@H]1CCCN1C(=O)[C@H](CCCNC(=N)N)NC(C)=O)C(=O)N1CCC[C@H]1C(=O)N[C@@H](Cc1ccc(Br)cc1)C(=O)O
As for B3, in assay [5], the Inhibition of FSK-induced cAMP production IC50 amounted to 2.22 nM and the Internalization EC50 was 2.11 nM. This molecule also gave a Ki in assay [6] of 2.11 nM. Further, in [7], the ERK1/2 phosphorylation EC50 turned out to be 71.3 nM and the ERK1/2 phosphorylation EC50, fold against K17F turned out to be 18 fold. In assay [3], this molecule yielded an ERK1/2 phosphorylation EC50 of 72.1 nM, an Internalization EC50 of 2.1 nM, a cAMP production IC50 of 2.22 nM and an inhibition of forskolin-induced cAMP production IC50 of 4.4 nM.

Regarding Ac-RPRLSHKGPMPF [Ac-R12F], the Ki in assay [8] is 1.4 nM. The inhibition of forskolin-induced cAMP production IC50 in assay [3] was 2.4 nM.

{Propanoyl(3-C8F17)}-KFRRQRPRLSHKGPMPF [JFM V-0196B] returned a Ki in assay [2] of 0.21 nM. Moreover, in [5], the ERK1/2 phosphorylation EC50 came to 0.89 nM, the Inhibition of FSK-induced cAMP production IC50 came to 3.13 nM and the Internalization EC50 is 0.41 nM. For the same molecule, in assay [6], the Ki turned out to be 0.08 nM. In addition, in assay [3], the IC50 cAMP inhibition was determined as 3.1 nM and the cAMP production IC50 worked out at 3.1 nM.

As for {fluorocarbon group}-KF[dR]R[dQ]RPR[dL]S[Aib]K[dA]P[Nle]P[Phe(4-Br)] (reading uncertain; also: fluorocarbon group on the NH2α of Lys 1) [FLUORO-P92], the Ki in assay [9] turned out to be 0.31 nM. This lies in the sub-nanomolar range.

With {acyl group}-KF[dR]R[dQ]RPR[dL]S[Aib]K[dA]P[Nle]P[Phe(4-Br)] (reading uncertain; also: acyl group on the NH2α of Lys 1) [LIPO-P92], in assay [9], the Ki stood at 0.25 nM and the factor of decreased affinity as compared to P92 lay within 2 to 3 fold.

Take Ac-KFRR[dQ]RPR[dL]S[Aib]K[dA]P[Nle]P[Phe(4-Br)] [P95]: the IC50 in [2] amounted to 0.03 nM. The factor of improved affinity as compared to K17F in assay [8] worked out at 10 fold. The molecule also yielded a cAMP production IC50 in assay [4] of 0.34 nM.

Take XRPRLSHKAPMPF (pGlu at 1; D-Ala at 9) [pE13F(D-Ala^9)]: in [10], the Ki turned out to be 4.3 nM. In [3], this molecule had an inhibition of forskolin-induced cAMP production IC50 of 43 nM.

For the molecule Palmitoyl-KFRRQRPRLSHKGPMPF [JFM V-0196A], the inhibitory constant (Ki) in assay [2] came to 0.76 nM. In assay [3], this molecule yielded an IC50 cAMP inhibition of 3.9 nM and a cAMP production IC50 of 3.9 nM.

Molecule XRPRLSXKGPMPF (pGlu at 1; Aib (α-aminoisobutyric acid) at 7) [pE13F(Aib^7)] yielded a Ki in [8] of 2.6 nM. In assay [3], this molecule gave an inhibition of forskolin-induced cAMP production IC50 of 1.2 nM.
